Assay results from the supplement of paper PMC10126150.
± gives the standard deviation of the averaged measurements.

Tested on: ATP
Assay: switch fluorescence ratio, 500 uM ATP over buffer (Cy3 cluster intensity, sum of 5 cycles each) (fold (ratio)); higher = stronger signal-on switching upon ATP binding; sequences stand for … in TCGTCGGCAGCGTCAGATGTGTATAAGAGACAGTTTTTTTTTTTTTTTTTTTTTTTTT…TC
Conditions: aptamer strand: ATP DNA aptamer (quencher-CACCTGGGGGAGTATTGCGGAGGAAGG + anchor), 100 nM annealed; ATP concentration: 500 uM
Method in brief: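 The quencher-labelled ATP aptamer, at 100 nM, was annealed to Cy3-labelled switching-strand clusters on a modified Illumina MiSeq flow-cell. The clusters were imaged in selection buffer, then after 15 min with 500 uM ATP at 22 °C, and this buffer/ATP cycle ran five times with NaOH stripping and re-annealing between runs. Per-cluster fluorescence ratios, summed target-cycle over summed buffer-cycle Cy3 intensity, were averaged per switch-domain sequence. Clusters outside 100-1000 RFU were excluded.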
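Further: ATP exposure 15 min at 22 °C before imaging.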

| Sequence | switch fluorescence ratio |
| --- | --- |
| CATTTGGGGT | 0.989 ± 0.017 |
| CATTTTATAA | 0.999 ± 0.014 |
| CATTTTCCGC | 1.81 ± 0.57 |
| CATTTTCTC | 1.038 ± 0.0086 |
| CATTTTGTCT | 1.018 ± 0.0047 |
| CCAAAAAAGG | 0.9625 ± 0.005 |
| CCAAAAGGAT | 1.01 ± 0.012 |
| CCAAAAGTAT | 1.03 ± 0.081 |
| CCAAAATTCC | 1.12 ± 0.034 |
| CCAAACAGGA | 1.006 ± 0.0063 |
| CCAAACGATT | 1.02 ± 0.027 |
| CCAAAGGGTT | 1.036 ± 0.0034 |
| CCAAATAGGA | 1.01 ± 0.013 |
| CCAAATGAGT | 0.989 ± 0.012 |
| CCAACTGGGA | 1.05 ± 0.012 |
| CCAAGAGTCG | 1.08 ± 0.046 |
| CCAAGCGCTG | 1.06 ± 0.03 |
| CCAAGGAAAA | 1.04 ± 0.17 |
| CCAAGGCAGG | 1.35 ± 0.069 |
| CCAAGGCGGG | 1.04 ± 0.017 |
| CCAAGGGCTG | 1.15 ± 0.19 |
| CCAAGGTCCT | 1.01 ± 0.014 |
| CCAAGTGCTG | 0.994 ± 0.018 |

| Sequence | switch fluorescence ratio |
| --- | --- |
| CCAAGTGGGA | 0.985 ± 0.01 |
| CCAAGTGGGC | 1.03 ± 0.053 |
| CCAAGTGTAT | 1.02 ± 0.055 |
| CCAAGTTGTG | 1.03 ± 0.074 |
| CCAAGTTTTT | 0.98 ± 0.031 |
| CCAATCGGGG | 1.03 ± 0.087 |
| CCAATGAGTC | 0.971 ± 0.013 |
| CCAATGGTGG | 1.01 ± 0.043 |
| CCAATGTGCG | 0.9925 ± 0.0092 |
| CCAATTCAAG | 0.9977 ± 0.0073 |
| CCACAAAATT | 1.1 ± 0.18 |
| CCACAGAAAA | 1.033 ± 0.006 |
| CCACAGGGCA | 1.34 ± 0.059 |
| CCACCCACAT | 1.48 ± 0.065 |
| CCACTTGAAA | 1 ± 0.018 |
| CCACTTGGTC | 1.06 ± 0.064 |
| CCAGACAGGG | 0.956 ± 0.045 |
| CCAGACATGA | 1.02 ± 0.012 |
| CCAGAGGAAC | 0.948 ± 0.019 |
| CCAGAGGTGT | 1.6 ± 0.064 |
| CCAGCATAGA | 1.14 ± 0.044 |
| CCAGCTGGAG | 0.997 ± 0.025 |
| CCAGCTGGAT | 1.015 ± 0.0088 |

| Sequence | switch fluorescence ratio |
| --- | --- |
| CCAGGCAAGC | 2.46 ± 1.3 |
| CCAGGCATGT | 1.05 ± 0.012 |
| CCAGGCGCGG | 1.05 ± 0.055 |
| CCAGGCTTAA | 1.06 ± 0.036 |
| CCAGGGAGCC | 1.1 ± 0.17 |
| CCAGGGCGGC | 0.854 ± 0.019 |
| CCAGGGCTAG | 1.02 ± 0.062 |
| CCAGGGGGGC | 1.16 ± 0.061 |
| CCAGGGGTGG | 1.02 ± 0.064 |
| CCAGGGTGCT | 2 ± 0.39 |
| CCAGGTAACT | 1.05 ± 0.018 |
| CCAGGTAAGT | 1.11 ± 0.11 |
| CCAGGTAGAG | 1.32 ± 0.13 |
| CCAGGTGTTA | 2.31 ± 1.8 |
| CCAGGTTAAT | 1.036 ± 0.0033 |
| CCAGGTTGTT | 1.551 ± 0.0043 |
| CCAGGTTTGC | 1.08 ± 0.067 |
| CCAGGTTTTT | 1.04 ± 0.017 |
| CCAGTAATTG | 1.04 ± 0.022 |
| CCAGTAGACT | 1.06 ± 0.035 |
| CCAGTAGGTC | 1.03 ± 0.022 |
| CCAGTCATGA | 1.014 ± 0.0027 |
| CCAGTGAGTC | 1.07 ± 0.041 |

| Sequence | switch fluorescence ratio |
| --- | --- |
| CCAGTTGATG | 0.991 ± 0.057 |
| CCAGTTTACT | 1.01 ± 0.042 |
| CCAGTTTGGT | 0.9871 ± 0.0073 |
| CCAGTTTGTG | 1.018 ± 0.0037 |
| CCAGTTTTTC | 1.01 ± 0.019 |
| CCAGTTTTTT | 1.002 ± 0.0099 |
| CCATACGTCA | 1.25 ± 0.054 |
| CCATACTTAT | 1.042 ± 0.0059 |
| CCATAGCAGG | 3.97 ± 0.9 |
| CCATAGCTCA | 2.016 ± 0.016 |
| CCATAGTGAC | 2.18 ± 0.18 |
| CCATATAGGC | 1.03 ± 0.065 |
| CCATCATAGG | 1.0149 ± 0.00068 |
| CCATCATTTT | 0.99 ± 0.041 |
| CCATCGGTGG | 1 ± 0.047 |
| CCATCGTATG | 0.971 ± 0.015 |
| CCATGAAAAT | 1.029 ± 0.003 |
| CCATGGAGTA | 1 ± 0.019 |
| CCATGGCGGG | 0.97 ± 0.028 |
| CCATGGCTGG | 1 ± 0.016 |
| CCATGGGGGA | 1.01 ± 0.0019 |
| CCATGGTACG | 1.051 ± 0.01 |
| CCATGTGTG | 1.02 ± 0.024 |

| Sequence | switch fluorescence ratio |
| --- | --- |
| CCATGTTAAG | 0.985 ± 0.02 |
| CCATGTTGCG | 0.982 ± 0.012 |
| CCATTCCCAT | 1.26 ± 0.28 |
| CCATTGTAAG | 1.02 ± 0.05 |
| CCATTGTAGT | 0.99 ± 0.013 |
| CCATTGTGAC | 1.06 ± 0.018 |
| CCATTGTGCA | 1.01 ± 0.013 |
| CCCAATTTGA | 1.06 ± 0.014 |
| CCCAGAGTTC | 1.06 ± 0.023 |
| CCCAGATTTT | 1.02 ± 0.03 |
| CCCAGTCAGA | 1.033 ± 0.0078 |
| CCCAGTTTGG | 1.01 ± 0.015 |
| CCCATCCGGT | 1.12 ± 0.023 |
| CCCATGCGTT | 1.03 ± 0.063 |
| CCCATGGGGG | 1.01 ± 0.028 |
| CCCATTTAGG | 1.04 ± 0.084 |
| CCCATTTTTT | 1 ± 0.049 |
| CCCCAAAAGT | 1.12 ± 0.14 |
| CCCCAATTT | 0.999 ± 0.025 |
| CCCCACGGCC | 1.16 ± 0.028 |
| CCCCAGGGGG | 3.38 ± 2.3 |
| CCCCCGGTTT | 1.12 ± 0.044 |
| CCCCGGTTA | 1.46 ± 0.12 |

| Sequence | switch fluorescence ratio |
| --- | --- |
| CCCCTCGAGG | 0.966 ± 0.049 |
| CCCGATCATA | 1.02 ± 0.017 |
| CCCGCAGTGT | 4.3 ± 1.4 |
| CCCGGGGCTG | 1.024 ± 0.0073 |
| CCCGGTATAT | 1.22 ± 0.12 |
| CCCGGTTTTA | 1.06 ± 0.12 |
| CCCGTAGGCT | 0.973 ± 0.014 |
| CCCTGGGTCT | 1.028 ± 0.0089 |
| CCCTTGCGGT | 1.03 ± 0.047 |
| CCCTTTTTTT | 1.07 ± 0.037 |
| CCGAAGGGGA | 1.65 ± 0.88 |
| CCGAATCGGA | 1.02 ± 0.054 |
| CCGAATTCT | 1.13 ± 0.029 |
| CCGACCTGTA | 1.94 ± 0.22 |
| CCGAGATCGT | 1.02 ± 0.033 |
| CCGAGGAGAG | 1.1 ± 0.037 |
| CCGATAGGCA | 1.124 ± 0.0038 |
| CCGATAGGGG | 1.05 ± 0.093 |
| CCGCAGAGCA | 1.79 ± 0.043 |
| CCGCATTGGT | 4.77 ± 0.66 |
| CCGCCAGGGG | 3.42 ± 1.8 |
| CCGCCATAAG | 3.42 ± 0.68 |
| CCGCCTTAAT | 2.21 ± 0.084 |

| Sequence | switch fluorescence ratio |
| --- | --- |
| CCGCGACAGG | 3.04 ± 0.22 |
| CCGCGGCGAA | 1.47 ± 0.22 |
| CCGCGGGGTT | 1.2 ± 0.084 |
| CCGCGGGTCG | 1.046 ± 0.0013 |
| CCGCGTACGG | 2.03 ± 0.22 |
| CCGCGTTATG | 1.67 ± 0.078 |
| CCGCTAAGGT | 1.39 ± 0.092 |
| CCGCTACTGT | 2.69 ± 0.39 |
| CCGCTCAGTT | 1.355 ± 0.0058 |
| CCGCTCGATG | 1.37 ± 0.023 |
| CCGCTTGGTT | 1.23 ± 0.028 |
| CCGCTTTGTT | 1.24 ± 0.072 |
| CCGGAAAAAG | 1.02 ± 0.074 |
| CCGGAAAGAG | 1.06 ± 0.02 |
| CCGGACAGCG | 0.99 ± 0.038 |
| CCGGACAGTG | 1.09 ± 0.099 |
| CCGGACGTTC | 1.53 ± 0.042 |
| CCGGAGGTCG | 0.958 ± 0.012 |
| CCGGATCGGC | 1.04 ± 0.029 |
